Source: the RNAGym collection of RNA variant scans (doi:10.1073/pnas.2313332121)
Fewer inactive variants are shown than the library holds.

B1: TPR 5TU (parent)
chain: GGAUCUUCUCGAUCUAACAAAAAAGACAAAUCUGCCACAAAGCUUGAGAGCAUCUUCGGAUGCAGAGGCGGCAGCCUUCGGUGGCGCGAUAGCGCCAACGUUCUCAACUAUGACACGCAAAACGCGUGCUCCGUUGAAUGGAGUUUAUCAUG

Variants of: B1
Assay: polymerase ribozyme fitness, log enrichment relative to wild type (log ratio); higher = more active; in vitro selection for triplet polymerase activity
In short: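 Libraries of mutants in each subunit of a heterodimeric triplet polymerase ribozyme were generated by PCR and transcribed. In triplicate, each went through one in vitro selection round: annealing with biotinylated primer, partner subunit and triplets; frozen incubation at −7 °C; gel excision of extended constructs; streptavidin-bead capture; RT-PCR. Fitness, taken from Illumina sequencing of input and output libraries, is the logarithm of a genotype's enrichment over wild-type enrichment, averaged across replicates with inverse-variance weights. The logarithm is base 2, and genotypes needed ≥10 input reads and ≥1 read per output to be kept.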

Row | Variant | polymerase ribozyme fitness (log ratio)
1 | G140A U146G | -3.51
2 | U146A U148A | -3.37
3 | U134G U148A | -3.87
4 | A150G G152U | -3.43
5 | G141U U146G | 1.06
6 | G136A G141U | 1.57
7 | U144C A147G | -0.508
8 | U134A G141C | -3.42
9 | U148G A150G | -3.79
10 | G140U G143A | ≤ -4.2
11 | A142G | -0.833
12 | A142C | -0.793
13 | A142U | -0.482
14 | G140C U148G | -4.14
15 | U144A A150U | -1.5
16 | U135G A142C | -2.54
17 | A137C C149U | -3.9
18 | G133U G141U | -2.6
19 | G136U | -1.9
20 | G136C | -2.62
21 | G136A | 0.579
22 | U134G U144G | -1.51
23 | G136A A142C | -0.134
24 | G136C A142C U146A | -2.66
25 | U135C G141U | -1.69
26 | U139A U146A | ≤ -4.2

Row | Variant | polymerase ribozyme fitness (log ratio)
27 | U144G U148G | -3.38
28 | A137C A150G | -4.17
29 | G140C G143U | -3.7
30 | U151G G152U | -3.49
31 | A137G U148A | -3.67
32 | G140U U145C | -3.66
33 | G136C U145A C149G | ≤ -4.2
34 | U139A | -3.57
35 | U139C | -2.57
36 | U139G | -0.159
37 | A137C U144A U146A | -3.95
38 | G141A G143C | -3.92
39 | U135A U148G | -3.41
40 | A147C U148A | -3.81
41 | G133U U144A | -3.29
42 | U145G | -0.131
43 | U145A | 0.192
44 | U145C | 0.096
45 | G141A U146C | 0.27
46 | A142U U144C | -3.6
47 | A142U U146G | -1.2
48 | U148G | -3.37
49 | U148A | -2.72
50 | U148C | -1.53
51 | U135A C149G | -4.09
52 | A137G G143C | -3.85
